Experimental findings from EP3766894A1 are described below.

Positions of bridges follow the written chain, without caps; N, C: chain ends. Non-standard residues stand in square brackets, D forms with d. Primed or numbered codes have the meaning given here. Chains are numbered I, II in the order given. No end group written: not given here. *: point of attachment. Palmitoyl = CCCCCCCCCCCCCCCC(=O)*; hArg = N=C(N)NCCCC[C@H](N)C(=O)O; Nle = CCCC[C@H](N)C(=O)O; PEG2″ = not defined here

Experiment [1] deals with human Kallikrein-related peptidase 7 (hKLK7) (human), P49862. Nature of the experiment: activity assay.
Sequence of human Kallikrein-related peptidase 7 (hKLK7) (human), P49862 (P49862 30-253 limits assumed): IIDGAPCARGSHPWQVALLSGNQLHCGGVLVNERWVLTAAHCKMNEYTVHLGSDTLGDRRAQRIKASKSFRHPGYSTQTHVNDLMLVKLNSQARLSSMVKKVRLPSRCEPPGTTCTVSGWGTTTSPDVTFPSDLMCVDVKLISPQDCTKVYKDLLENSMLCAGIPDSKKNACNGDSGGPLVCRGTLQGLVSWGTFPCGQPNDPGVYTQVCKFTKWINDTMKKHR
Experiment [2] has as its target human serum albumin (HSA) (human), P02768. Briefly: fluorescence polarization. In general terms: Polarisation of emitted light reports the rotation of a fluorescent probe.

B1: KLK7 inhibitor 278-tag (final KLK7 inhibitor) (peptide)
peptide 1: PCLY[Nle]A[hArg]CGKG
peptide 2: {fluorescein-PEG2″}-EYEK(Palmitoyl)EYE
modifications: bridge I:2-I:8; not fully specified (bridges); also: chain 2 C-terminus joined via PEG2 to Lys side chain of GKG linker
Regarding B1, the inhibitory constant (Ki) (in general, the equilibrium dissociation constant of an inhibitor or competing ligand from its target) in experiment [1] was 7.4 nM. In addition, the Kd (as a rule, the equilibrium constant for the complex coming apart) in experiment [2] stood at 164 nM.
